Data on six substances can be found in publication PMC10897327.

Common to all, as to test: native gel or EMSA; NativePAGE 3-12% Bis-Tris gel with Coomassie G-250, immunoblot for 52K; purified MBP-52K fusion proteins with or without TEV protease cleavage for 1 h at room temperature
The target of assay [1] is recombinant WT 52K released from MBP-52K by TEV protease (human adenovirus type C5 (Ad5)).
The target in assay [2] is MBP-52K fusion protein, S28/75D (MBP tag not removed) (human adenovirus type C5 (Ad5)).
In assay [3] the target is recombinant 52K S28/75D released from MBP-52K by TEV protease (human adenovirus type C5 (Ad5)).
Assay [4] addresses recombinant 52K S28/75A released from MBP-52K by TEV protease (human adenovirus type C5 (Ad5)).
In assay [5] the target is MBP-52K fusion protein, S28/75A (MBP tag not removed) (human adenovirus type C5 (Ad5)).
Assay [6] has as its target MBP-52K fusion protein, wild type (MBP tag not removed) (human adenovirus type C5 (Ad5)).

For orientation: stoichiometry N means the number of molecules, sites or subunits per partner or assembly. With “recombinant WT 52K released from MBP-52K by TEV protease (natural protein)”, in assay [1], the stoichiometry N was 2.
Turning to “MBP-52K fusion protein, S28/75D (MBP tag not removed) (natural protein)”, the stoichiometry N in assay [2] amounted to 2.
For “recombinant 52K S28/75D released from MBP-52K by TEV protease (natural protein)”, in assay [3], the stoichiometry N is 2.
As to “recombinant 52K S28/75A released from MBP-52K by TEV protease (natural protein)”, in assay [4], the stoichiometry N is 2.
In assay [5], “MBP-52K fusion protein, S28/75A (MBP tag not removed) (natural protein)” displayed a stoichiometry N of 2.
“MBP-52K fusion protein, wild type (MBP tag not removed) (natural protein)” displayed a stoichiometry N in assay [6] of 2.
